From patent US20230066984A1, “New Carbon Glycoside Glycosyltransferase and Use Thereof” (CAS Center for Excellence in Molecular Plant Sciences, priority 2020, published 2023)
Numbering of substitutions follows the chain as printed.

B1: TaCGT2-B: C-glycosyltransferase from wheat, SEQ ID NO: 12 (protein, listed as Triticum aestivum)
chain: MASSPRDDRAGAAAPRPRIVLLPSASMGHLAPFSRLAAALSSGHACDVSLVTVLPTVSSAESGQLDALFAAFPAVRRLDFQLPPLDAPELSGADPFYVHYEATRRSARLLAPLLAAADASVLVADISLASVLIPVASELRLPCYVFFTASATMFSFYAYYPTYLDAAGAGDADVPGVYRIPKSSFPQALHDRNNLFTQQFVANGRSLSKADGLLINTFDALEPEAVTALRQGSVVPGCPPVFTVGPLSPVSFPARASADYSACLDAQPERSVVYVSFGSRKALARDQLSELADGLEASGCRFLWVVKGAVVDKDDGAELSELLGEGFLQRVSGRALVTKAWVEQGEVLKHPAIGMFVSHCGWDSLTEAFATGVPVLAWPRFADQRVNAGIVARCGAGVWVERWSWEGDEGVVKGEEIAEKVKSVMANEMLRRSSTMVREAAMTAVAGGGTSYRSLAELVARCCDGSASQ
B2: SiCGT2: C-glycosyltransferase from millet, SEQ ID NO: 18 (protein, listed as Setaria italica)
chain: MSSPPPPNSTSDDCQGTAATPHIVLFPSAGMGHLVPFTRLAVALSAGHCCDVSLVTALPTVSSAESCHIAALFAAFPAVRRLDLRLAPLDASSEFPGADPFYVRYEALRRSTPLLLGPLLAGASASALVADIALASVAIPVARELRVPCYVFFTASATMLSFKAYFPTYLDANGGAGHSVGDVDVPGVCRVPRSSIPQALHDPDDIFTRQFVANGRALVAADGLLVNAFEAMEPEAVAALLGGSVVASLPPVFAVGPLMPLNLREAAEEQGNYRAWLDAQPPRSVVYVSFGSRKALARDQIRELAAWLEACGHRFLWVVKGAVVDRDDACELSDLLGEGFQRRVEGRGLVTKSWVEQDEVLRHPAVGLFVSHCGWNSVTEAAANGVPVLAWPRFADQRVNARVVARAGFGVWVERWSWEGEEAVVGAEEIAEQVVAAMGDQAVAEKAASVRDEAARAVADGGTSQQSLAEFVRRCRGGLAGPGTDLGRTWTARG
B3: ZmCGT4: C-glycosyltransferase from maize, SEQ ID NO: 14 (protein)
chain: MSSPAPSSASRSSHGSRGSPRIVLFPSAGMGHLVPFTRLAVALSAGHGCEISLLTALPTVSSAESRHIAALYAAFPAIRQLDLRFAPFDASSEFPGADPFYLRYEALRRCAPSLLGPLLAGAGASALVVDMALASVAIPVARELHVPCFVFFTASATMLSFKAYFPTYLDDVGAGHGVGDVDVPGVYRIPSSSVPQALHDPDNIFTRQFVANGRALATADGLLVNAFHAMEPEAVEALQGRFVLSVLPPVFAVGPLMPVNDLRETGEAAQKQGNYRAWLDEQPPRSVVYVSFGSRKALPKDQIKELAAGLEACGHRFLWVVKGAVVDRDDAGELSELLGEAFLRRVHGRGLVTKSWVEQEEVLRHPAVALFVSHCGWNSVTEAVSSGVPVLAWPRFADQRVNARVVVRCGLGVWADQWSWEGEEALVRAEEITALVMEAMEDDAMAVKAANVREAASRAVVDGGTSYRSLAAFVRRCTA
modifications: Zea mays
B4: ZmCGT5: C-glycosyltransferase from maize, SEQ ID NO: 15 (protein)
chain: B3 chain with A9P, G18S, E50D, L54V
modifications: Zea mays
B5: SiCGT1: C-glycosyltransferase from millet, SEQ ID NO: 17 (protein, listed as Setaria italica)
chain: MPTSGDHSGARPHVVLLPSAGMGHLVPFGRLAVALSAGHGCDVSVAAVLPTVSSAEARHLEALFAAADPAVRRLDFRLAPFDASEFPGADPFFLRFEAMRRSAPLLGPLLATAGASAVVTDIVLASVVLPVARECGVPCYVLFTASAAMLAFCAHFPGYLDANSAAGRAGVVGDVDIPGVYRIPKSSVPQALHDPKHLFTQQFVANGRGLVDADGILVNTFDALEPEAVTALRKGKVVSSFPLVFAVGPLLPVMFPAKDPAGYMQWLDAQPARSVVYVSFGSRTAISPDQLLELAAGLEASGHRFLWVVKSTVVDRDDAGELGDLLGHGFLERVRGRALVTKGWVEQEEILQHGSVGLFVSHCGWNSVTEAAAFGVPVLAWPRFGDQRINAAVVTRGGLGAWEERWSWDGEEGLVSGEEVGEKIKAVMADETVAKKAAAVGDAAAAAATSKGGTSYRSLAEFVGRCRDAGSRQDR
B6: TaCGT2-D: C-glycosyltransferase from wheat, SEQ ID NO: 13 (protein, listed as Triticum aestivum)
chain: MASSSRDDRAGAAAPRPRIVLIPSAGMGHLAPFSRLAAALSSGHTCNVSLVTVLPTVSSAESGHLDALFAAFPAVRRLDFQLPPLDAPELSGADPFYVHYEATRRSARLLAPLLAAADASALVADISLASVLIPVASELRLPCYVFFTASATMFSFYAYYPTYLDAAGAGDADVPGVYRIPKSSFPQALHDRNNLFTQQFVANGQSLSKADGLLINTFDALEPEAVTALRQGSVVPGFPPVFNVGPLSPVSFPARASSDYSAWLDAQPERSVVYVSFGSRKALARDQLSELADGLEASGCRFLWVVKGTVVDKDDGAELSELLGEGFLQRVSGRALVTKAWVEQGEVLKHPAIGMFVSHCGWNSLTEAFASGVPVLAWPRFADQRVNAGIVARRGAGVWVERWSWEGDDGVVKGEEIAEKVKSVMADEMLRRSSTVVREAAMTAVAGGGTSYRSLAELVARCCDGSASNAPSEA
B7: BdCGT1: C-glycosyltransferase from Brachypodium distachyo, SEQ ID NO: 16 (protein)
chain: MPTSGDGPTSQPHVVLLPSAGMGHLVPFSRLAVALSSAHGCDVSLVTVLPTVSSAESSHLEALFGAFPAVRRLEFHLADFDASEFPNADPFFLRFEAMRRSAPLLLGPLLARASATALVTDIALSSVVIPVAKQLRLPCYVLFTASAAMLSLCVHFPAYLDANGNGLVGDVDIPGVYQIPKASVPQALHDPKHLFTRQFVANGRELAKSDGVLVNSFDAFEPEAIAALREGAVSAAGFFPPVFSVGPLAPVSFPAGNNNRADYIQWLEAQPARSVVYVSFGSRKAVARDQLRELAAGLEASGHRFLWVVKSTVVDRDDDADLGELLGEGFLERVQGRGMVTKGWVEQEDVLKQESVGLFISHCGWNSVTEAAAGGLPVLAWPRFGDQRVNAGVVARSGLGVWVDSWSWEGEEGVVSGESIAEKVKAVMGDEIARNKAVSVRDAAAKAVADGGTSYRNLARFAQRCRDGRVRE
modifications: Brachypodium distachyon
B8: TaCGT2-A: C-glycosyltransferase from wheat, SEQ ID NO: 11 (protein, listed as Triticum aestivum)
chain: MASSSRDDRAGAAAPRPRIVLLPSAGMGHLAPFSRLAAALSSGHACDVSLVTVLPTVSSAESGQLDALFAAFPAVRRLDFHLPPLDAPELSGADPFYVHYEATRRSARLLAPLLAAADASALIADISLASVLIPVASELRLPCYVFFTASATMFSFYAYYPTYLDATGAGDADVPGVYRIPKSSFPQALHDRNNLFTQQFVANGRSLSKADGLLINTFDDLEPEAVTALRQGSVVPGFPPVFTVGPLSPVSFPARASSDYSAWLDAQPERSVVYVSFGSRKALARDQLSELADGLEASGCRFLWVVKGAVVDKDDGAELSELLGEGFLQRVSGRALVTKAWVEQGEVLKHPAIGMFVSHCGWNSLTEAFATGVPVLAWPRFADQRVNAGIVARCGAGVWVERWSWEGDDGVVKGEEIAEKVKSVMADEMLRRSSTVVREAATTAVAGGGTSYRSLAELVARCCHGSALQ
B9: TaCGT1-D: C-glycosyltransferase from wheat, SEQ ID NO: 10 (protein, listed as Triticum aestivum)
chain: MPTSGDASGALPHPHVVLLPSAGMGHLVPFSRLAVSLSSPGHGCGVSVATVLPTVSSAESAHLDALFGACPAVRRLDFHLAPFDASEFPGADPFFLRFEAMRRSAPLLGPLLAGAGASALVTDIALASVVIPVARDLRLPCYVLFTASAAMLSLCVHFPAYLDANAGGPVGDVGIPGVYRVPKASIPQALHHPEHLFTQQFVANGRELAKADGLLVNSFDAFEPEAIAALRNGSVAAGFPPVFSVGPLAPVSFSASEPPENQADYMRWLEAQPARSVVYVSFGSRKAISKDQLRELAVGLEASGHRFLWVVKSTVVDRDDEAELSELLGEGFLERVQGRGMVTKGWVEQEEVLKQESIGLFISHCGWNSVTEAAANGLPVLAWPRFGDQRVNAGVVARSGLGVWEERWSWEGEEGTVSGHNIAEKVKTVMADKTVRNKAVSVQDAAAEAVADGGTSYRSLAQFVQRCRDLSVSK

Assay: In vitro functional identification of C-glycosyltransferases by HPLC, phloretin as glycosyl receptor
Type: biochemical
Settings: 0.1 mM phloretin, 0.3 mM UDP glucose, crude enzyme, 37° C., 2 h, HPLC (FIG. 1A)
Procedure: The recombinant plasmid was transformed into competent cells of Escherichia coli BL21 (DE3), and cultured overnight at 37° C. in solid LB medium (kanamycin 50 μg/mL). Single colony was transferred to a 2 mL LB liquid medium (containing 50 μg/ml kanamycin) and incubated overnight. The bacterial fluid was transferred to a new 100 ml LB liquid medium with antibiotics and incubated at 37° C. and 250 r/min until OD600 reached 0.5-0.6. The culture was cooled down to 16° C. in a water bath. Then inducer IPTG was added at a final concentration of 0.1 mM. The mixture was cultured at 16° C. for low temperature induction and 180 r/min for 20 h. The BL21(DE3) recombinant strain carrying the pET28a empty plasmid was used as a blank control, and the culture operation was the same as above. The bacteria were harvested by centrifugation (6000 r/min, 5 min), re-suspended in 1 mL of lysis buffer Buffer A (20 mM Tris-HCl, pH 8.0; 100 mM NaCl), and DNase was added to a final concentration of 5 μg/mL, Mg^2+ to a final concentration of 2 mM; protease inhibitor PMSF to a final concentration of 1 mM; the bacteria were incubated on ice for 30 min and then sonicated; refrigerated centrifugation (10,000 rpm, 30 min, 4° C.), filtered through a 0.2 µm filter membrane to obtain the supernatant crude enzyme solution, and added 20% glycerol for cryopreservation (−20° C.).
The in vitro enzyme catalytic assay system is 100 μL. The reaction system includes: 0.1 mM glycosyl receptor (phloretin or 2-hydroxynaringenin), 0.3 mM UDP glucose, 25 μL supernatant crude enzyme solution, and Buffer A is used to make up the volume to 100 μL, and react at 37° C. for 2 h. After the reaction was completed, an equal volume of methanol was added to terminate the reaction, and HPLC was used for product analysis. HPLC detection conditions: chromatographic column: reverse phase C18 column [SilGreen ODS column (ø 4.6×250 mm)], detection wavelength 280 nm; mobile phase: acetonitrile (0.1% formic acid)-water (0.1% formic acid) mixture gradient elution, with increased ratio from 5:95 to 100:0 within 0 to 20 min, and the flow rate was 1 mL/min.

| Molecule | conversion of substrate phloretin to C-glycosylated product (Nothofagin) | 5′ C-glycosylation of 3′-glycosylated phloretin giving phloretin-3′,5′-C-diglucoside |
| --- | --- | --- |
| B1 | can convert the substrate phloretin to a product having a shorter retention time | – |
| B2 | can convert the substrate phloretin to a product having a shorter retention time | – |
| B3 | can convert the substrate phloretin to a product having a shorter retention time | – |
| B4 | can convert the substrate phloretin to a product having a shorter retention time | – |
| B5 | can convert the substrate phloretin to a product having a shorter retention time | can catalyze the glycosylation of the 3′-glycosylated phloretin at the 5′ position |
| B6 | can convert the substrate phloretin to a product having a shorter retention time | – |
| B7 | can convert the substrate phloretin to a product having a shorter retention time | – |
| B8 | can convert the substrate phloretin to a product having a shorter retention time | – |
| B9 | can convert the substrate phloretin to a product having a shorter retention time | can catalyze the glycosylation of the 3′-glycosylated phloretin at the 5′ position |
